From the DeepSol protein solubility set

Experiment: soluble on expression in E. coli; label from the status in PepcDB or PDB records

| Sequence | soluble on expression in E. coli |
| --- | --- |
| MKKIILVAALLSAAVCLPAQNKGGNKSGGINLSLWKKACTQPLDSTQTTYVNLGLFSAMHKLHGVGFNAFGSMVQNNMNGVQISGLANLAGGSMHGVQIGGISNVNGNNLAGLSVSGLVNITGNKAKGVLITGLSNIAGDNMRGLMMSGIMNITGDKAAGVQLAGLANVTGEEYDGLMMSGLLNVVGEEMNGLQLSGLANVTGGQMNGVQLGLFNFASKAKGLQIGLFNYHKEDMKGLQLGLVNANPQTKVQLMVFGGNSTKINVGARFKNKLFYTILGGGTHYLDFDDKFSAALFYRAGLELPLYRNLFVSGDLGYQHIETFRNKKVEGIPARLYALQARLNLEYRFTDKFGLFVTGGYGGSRYYNKARTYDKGVIAEAGVVLFMAGDPLEHHHHHH | not soluble |
| MHIDNVVFMKKVLDASAFINGYVPEGRENYTVRSVTEEIRDFRSMMILEDALREGRLKITEPDPESMKVVEDAISESGDIMRLSPTDMEVIGLAVSLRGKDDVTVITDDYTIQNTLKILGIGFRSVLTSGIRDTYSWRRVCTGCRRVYPLDYEFEECEICGSRIVRKRHRNLEHHHHHH | soluble |
| EDPFQPEIKVRCVCGNSLETDSMIQVIWDELTAFIPCEDPRCHVWQHVGCVILPDKPMDGNPPLPESFYCEICRLT | soluble |
| MGSKVAGKKKTQNDNKLDNENGSQQRENINTKTLLKGNLKISNYKYLEVIQLEHAVTKLVESYNKIIELSPNLVAYNEAVNNQDRVPVQILPSLSRYQLKLAAELKTLHDLKKDAILTEITDYENEFDTEQKQPILQEISKADMEKLEKLEQVKREKREKIDVNVYENLNEKEDEEEDEGEDSYDPTKAGDIVKATKWPPKLPEIQDLAIRARVFIHKSTIKDKVYLSGSEMINAHNERLEFLGDSILNSVMTLIIYNKFPDYSEGQLSTLRMNLVSNEQIKQWSIMYNFHEKLKTNFDLKDENSNFQNGKLKLYADVFEAYIGGLMEDDPRNNLPKIRKWLRKLAKPVIEEATRNQVALEKTDKLDMNAKRQLYSLIGYASLRLHYVTVKKPTAVDPNSIVECRVGDGTVLGTGVGRNIKIAGIRAAENALRDKKMLDFYAKQRAAIPRSESVLKDPSQKNKKRKFSDTS | soluble |
| MYRMDKYTIGLIRVITLEDKEILNLHGRIIESAFPELKVVSRCIEDQPKGIYNEETEREAEPKIIRLAKEFEREGVDAIIISCAADPAVEKVRKLLSIPVIGAGSSVSALALAYGRRVGVLNLTEETPKVIRSILGNNLIAEDHPSGVSNTLDLLTDWGRREVINAAKRLKEKGVEVIALGCTGMSTIGIAPVLEEEVGIPVIDPVIASGAVALHALKRREVKRFEGR | soluble |
| MGSDKIHHHHHHMKSTIYKALIGATLIIGLSSCVNNWLDVEPGDQVEADEAVTTSADLSSVRAGMYQIIKGTSDFKDYYAARMFYYGEVRGEDMQTEKSGSRSQLCYDMTYSTADNAPSIWQTPYIVIGRANRIIEAAESGKLTDKEEAADIIAQYAAEAKVARAMAHFDLVRVYGKTYTAPDAPNSLGIPVVTTVLGSDSKLIRNTVSEVYTQVIKDLNEAINSKALSESSTPGYINLWAAKALLSRVYLTQGDNQKSLDVAEDIIKNSPYKLWKNEEYVGAWSKISGVHSNEMLFEIAITGSTDWTDREGIAYLYNEDGYADIIATKKFLDLLNEDPNDVRLGVFLAPTTKDFKKLYGTNTVFLNKYPADGLSDLRYNNVPLVRLSEVYLNAAEAAAKLGNQNDKAVEYLDAIVKRANPNKTVKGTTVTVDRVLLERRKELIGEGHRFFDAMRNNETVIRYTSKEDQGWQQALKEEARSFNRDFYKTLLPIPQDEIDANPSMKDQQNTGY | not soluble |
| MTTETIQSNANLAPLPPHVPEHLVFDFDMYNPSNLSAGVQEAWAVLQESNVPDLVWTRCNGGHWIATRGQLIREAYEDYRHFSSECPFIPREAGEAYDFIPTSMDPPEQRQFRALANQVVGMPVVDKLENRIQELACSLIESLRPQGQCNFTEDYAEPFPIRIFMLLAGLPEEDIPHLKYLTDQMTRPDGSMTFAEAKEALYDYLIPIIEQRRQKPGTDAISIVANGQVNGRPITSDEAKRMCGLLLVGGLDTVVNFLSFSMEFLAKSPEHRQELIERPERIPAACEELLRRFSLVADGRILTSDYEFHGVQLKKGDQILLPQMLSGLDERENACPMHVDFSRQKVSHTTFGHGSHLCLGQHLARREIIVTLKEWLTRIPDFSIAPGAQIQHKSGIVSGVQALPLVWDPATTKAVHHHHHH | soluble |
| MSLSMKSELRKQVLHEMKAISQEQKQAIDQALTERLLHHPFYQEAKVIATYLSFSHEFQTRELIEQALKDGKKVLIPKTYPKGRMEFVAYDPQQLVKTSFALLEPQGDVEVVDASQIDLIHVPGLAFTTKGYRIGYGGGYYDRYLEHFSGRTLSTIYPCQIQDFIPEEGHHHHHH | not soluble |
| MPKLGIKPLRRQQLIDATLRSISERGLQNTTIVSISKIAGMSSGIISHYFGGKKELIEETVSYLLDQLQQSLLERITEENPPAHIRLNLIVEANFTEFQRSLLATKTWLSFWAMSMHDPAMARLQSINSNRLHSNLLFSFKELLDPESAANAAKQTAAMIDGFWLRSALSENSEQEFIAAELLCKKFINDVIKQEISNASN | not soluble |
| MGSDKIHHHHHHMSHTLYEASVIRVQRCELAVPGSNPGMFEKALKSGVDFVFLDLEDAVAPDDKLTARKNVIEALNDLDWRGHGVTVSVRINGLDTQFMVRDVVDVVEKAGHKLDTILIPKVGVYSDVYMVEAMLNQLEMQQGLKNRIGIEALIETALGMANVEDIARHGVRGRLEALHFGVADYAASNRARTTNIGGLNPDYPGDQWHAAISRMTVACRAYGLRPIDGPFGDIQDPEGYKAAARRAAALGCEGKWAIHPSQIDLANEVFTPPPSEVEKAQRILAALQEAAAQGKGAAALDGRLIDAASARMANNVVKMAEAIGATAT | not soluble |
| MGSDKIHHHHHHACSSEEGGSQAMGGKGAVILDLAAETVFDTKTKAVDESTYLTDRPLADYKVKILDAQGHVVSGCEWKYSERPTGLIELSNGSYTVVASDGEEFNVNASTRNGIYMYGSSRFDVNSDKVAAVNVACKPACGKLVVKFGDTMATYFSDYAVHFSTQAAGENGSIIWPKGDTDPLYVKLAEAGENVTATFQFTKKADGTNAEVNTLTREMKWGSMWTITVNPKVEDTTGKVGITITFDDSTNDKPIDIEIPSDWL | not soluble |
| VKVNPSVKPICDKCRLIRRHGRVMVICSDPRHKQRQG | not soluble |
| MSLLTLLRPATVQDCKDIFKVHLHSVQYTCILSYNEHALKVWEGLLNTESYLPTISDPDKALWVAEYKGNIQGFFQIDCQEAQLDALYVHPLFHNLGLGTALLHQAETIAHKSGLSFLKLYASLNSVPFYLLNRYESLGSAVLQLDPSIKIKCELMRKHL | not soluble |
| MLKEAIYHRPKDNYAYAYDEKTIHIRIRTKRDDVQSTTLIYGDPYEWKDGKWISSSTPMKKTGSTALFDYWFISIEPKFKRLRYGFELKNDTDTLIYAERGFFSTTPNDDVGNFFCFPFIHANDVFKAPSWIKDTVWYQIFPERFANGDHTLNPENTLPWGSAEPTPTNFFGGDFAGIIQNLDYLVKLGISGIYFTPIFKAHSNHKYDTIDYMEIDPQFGTKETFKELVQACHTHGIKVMLDAVFNHSGYFFDKFQDVLQNGEQSAYKEWFHIHEFPIRTEPLPNYDTFAFTPYMPKLNTAHPDVKEYLLEVGRYWVREFNIDGWRLDVANEVDHNFWREFRSEIKALNSEVYILGEIWHDALPWLQGDQFDAVMSYPVTNALLSYFANDSIKANEFMKQITESLHSYSMNVNEAAFHLLDSHDTPRILTTCNGDKNKLKLLYVFHLSFIGSPCIYYGDEIGMDGGMDPDCRKCMVWDTEEQDHTLFTHVQTLISLRKQYKAFGGHGTFQFIEANDEYNYISYTKTYEDETIFFVLNPTNSDITASLPLHVTGKKIINIYTNEEFSAEASVLQVTLPPYGFSILKW | not soluble |
| MVLRAKLLSWQEGVGSKTFEFDVDVEPRSYVISKVSQLSPIIASEDLTVCEGEVAVVGTRVIEIPENTVVRPVAAISHANGFVADVIECGAPGMVEDEKCINHAVFIPTRSGDVKEGDLLGMLRINFVRTGLLSRVILEHHHHHH | not soluble |
| MDEKKCWLVVCVQSNREKKTYERLSALGFESFLPLQEETRRWSDRSKKVQRVVIPMVVFARIAPSERISVLRLPSVSRFMVLRGESAPAIIPDAQMERFRFMLDYSEEAVEMCSERIQPGEQVKVIKGPLTGLTGELITMDGKSKVAVRINMLGAAMVEVPVGFVERI | not soluble |
